Reference: US20140186363A1 (UNIVERSITY OF ZURICH, published 2014)

Assays:
MAGEA3 peptide no 1 = target: T1, MAGEA3 peptide no 1; assay: peptide ELISA (coated 20mer)
T1 construct: also called MAGEA3 aa 1-20
T1 peptide: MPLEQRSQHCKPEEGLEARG
Method: (§1) 20mer peptides spanning the entire MAGEA3 protein with 10 aa overlaps shared by each adjacent peptide (Peptides&Elephants, Nuthetal, Germany) were used to coat Maxisorp ELISA plates (Nunc, Rochester, N.Y.). As control a 20mer peptide representing amino acids 40-21 from the NY-ESO-1 protein was used (rev). The numbering of amino acids of MAGEA3 is based on SEQ ID No:41.
(§2) Human recombinant antibody was used at a concentration of 1 μg/ml. Bound human antibody was detected using horseradish peroxidase-conjugated goat anti-human IgG Fc-gamma specific antibodies (Jackson ImmunoResearch, Europe Ltd., Cambridgeshire, UK).

MAGEA3 peptide no 10 = target: T2, MAGEA3 peptide no 10; assay: peptide ELISA (coated 20mer)
T2 construct: also called MAGEA3 aa 91-110
T2 peptide: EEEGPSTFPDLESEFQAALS
Method: as §1, §2

MAGEA3 peptide no 11 = target: T3, MAGEA3 peptide no 11; assay: peptide ELISA (coated 20mer)
T3 construct: also called MAGEA3 aa 101-120
T3 peptide: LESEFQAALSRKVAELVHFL
Method: as §1, §2

MAGEA3 peptide no 12 = target: T4, MAGEA3 peptide no 12; assay: peptide ELISA (coated 20mer)
T4 construct: also called MAGEA3 aa 111-130
T4 peptide: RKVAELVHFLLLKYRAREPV
Method: as §1, §2

MAGEA3 peptide no 13 = target: T5, MAGEA3 peptide no 13; assay: peptide ELISA (coated 20mer)
T5 construct: also called MAGEA3 aa 121-140
T5 peptide: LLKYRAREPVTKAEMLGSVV
Method: as §1, §2

MAGEA3 peptide no 14 = target: T6, MAGEA3 peptide no 14; assay: peptide ELISA (coated 20mer)
T6 construct: also called MAGEA3 aa 131-150
T6 peptide: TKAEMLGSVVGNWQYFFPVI
Method: as §1, §2

MAGEA3 peptide no 15 = target: T7, MAGEA3 peptide no 15; assay: peptide ELISA (coated 20mer)
T7 construct: also called MAGEA3 aa 141-160
T7 peptide: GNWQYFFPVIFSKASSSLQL
Method: as §1, §2

MAGEA3 peptide no 17 = target: T8, MAGEA3 peptide no 17; assay: peptide ELISA (coated 20mer)
T8 construct: also called MAGEA3 aa 161-180
T8 peptide: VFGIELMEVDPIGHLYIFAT
Method: as §1, §2

MAGEA3 peptide no 18 = target: T9, MAGEA3 peptide no 18; assay: peptide ELISA (coated 20mer)
T9 construct: also called MAGEA3 aa 171-190
T9 peptide: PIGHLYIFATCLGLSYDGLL
Method: as §1, §2

MAGEA3 peptide no 19 = target: T10, MAGEA3 peptide no 19; assay: peptide ELISA (coated 20mer)
T10 construct: also called MAGEA3 aa 181-200
T10 peptide: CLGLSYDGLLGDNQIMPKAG
Method: as §1, §2

MAGEA3 peptide no 2 = target: T11, MAGEA3 peptide no 2; assay: peptide ELISA (coated 20mer)
T11 construct: also called MAGEA3 aa 11-30
T11 peptide: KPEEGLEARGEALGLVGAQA
Method: as §1, §2

MAGEA3 peptide no 20 = target: T12, MAGEA3 peptide no 20; assay: peptide ELISA (coated 20mer)
T12 construct: also called MAGEA3 aa 191-210
T12 peptide: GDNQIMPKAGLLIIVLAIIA
Method: as §1, §2

MAGEA3 peptide no 21 = target: T13, MAGEA3 peptide no 21; assay: peptide ELISA (coated 20mer)
T13 construct: also called MAGEA3 aa 201-220
T13 peptide: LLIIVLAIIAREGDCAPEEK
Method: as §1, §2

MAGEA3 peptide no 22 = target: T14, MAGEA3 peptide no 22; assay: peptide ELISA (coated 20mer)
T14 construct: also called MAGEA3 aa 211-230
T14 peptide: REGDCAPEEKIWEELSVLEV
Method: as §1, §2

MAGEA3 peptide no 25 = target: T15, MAGEA3 peptide no 25; assay: peptide ELISA (coated 20mer)
T15 construct: also called MAGEA3 aa 241-260
T15 peptide: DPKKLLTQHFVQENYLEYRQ
Method: as §1, §2

MAGEA3 peptide no 26 = target: T16, MAGEA3 peptide no 26; assay: peptide ELISA (coated 20mer)
T16 construct: also called MAGEA3 aa 251-270
T16 peptide: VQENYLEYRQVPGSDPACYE
Method: as §1, §2

MAGEA3 peptide no 27 = target: T17, MAGEA3 peptide no 27; assay: peptide ELISA (coated 20mer)
T17 construct: also called MAGEA3 aa 261-280
T17 peptide: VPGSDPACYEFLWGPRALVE
Method: as §1, §2

MAGEA3 peptide no 28 = target: T18, MAGEA3 peptide no 28; assay: peptide ELISA (coated 20mer)
T18 construct: also called MAGEA3 aa 271-290
T18 peptide: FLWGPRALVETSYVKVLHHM
Method: as §1, §2

MAGEA3 peptide no 29 = target: T19, MAGEA3 peptide no 29; assay: peptide ELISA (coated 20mer)
T19 construct: also called MAGEA3 aa 281-300
T19 peptide: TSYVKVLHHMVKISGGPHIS
Method: as §1, §2

MAGEA3 peptide no 3 = target: T20, MAGEA3 peptide no 3; assay: peptide ELISA (coated 20mer)
T20 construct: also called MAGEA3 aa 21-40
T20 peptide: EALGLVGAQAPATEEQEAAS
Method: as §1, §2

MAGEA3 peptide no 30 = target: T21, MAGEA3 peptide no 30; assay: peptide ELISA (coated 20mer)
T21 construct: also called MAGEA3 aa 291-310
T21 peptide: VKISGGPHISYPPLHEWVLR
Method: as §1, §2

MAGEA3 peptide no 5 = target: T22, MAGEA3 peptide no 5; assay: peptide ELISA (coated 20mer)
T22 construct: also called MAGEA3 aa 41-60
T22 peptide: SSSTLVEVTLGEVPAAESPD
Method: as §1, §2

MAGEA3 peptide no 6 = target: T23, MAGEA3 peptide no 6; assay: peptide ELISA (coated 20mer)
T23 construct: also called MAGEA3 aa 51-70
T23 peptide: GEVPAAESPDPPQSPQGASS
Method: as §1, §2

MAGEA3 peptide no 9 = target: T24, MAGEA3 peptide no 9; assay: peptide ELISA (coated 20mer)
T24 construct: also called MAGEA3 aa 81-100
T24 peptide: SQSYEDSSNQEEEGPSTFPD
Method: as §1, §2

MAGEA4 = target: T25, MAGEA4 (UniProt P43358 1-317, limits assumed); assay: Western blot of recombinant protein, anti-human IgG-HRP
T25 construct: also called recombinant MAGEA4-protein; CT1.4
T25 sequence (looked up): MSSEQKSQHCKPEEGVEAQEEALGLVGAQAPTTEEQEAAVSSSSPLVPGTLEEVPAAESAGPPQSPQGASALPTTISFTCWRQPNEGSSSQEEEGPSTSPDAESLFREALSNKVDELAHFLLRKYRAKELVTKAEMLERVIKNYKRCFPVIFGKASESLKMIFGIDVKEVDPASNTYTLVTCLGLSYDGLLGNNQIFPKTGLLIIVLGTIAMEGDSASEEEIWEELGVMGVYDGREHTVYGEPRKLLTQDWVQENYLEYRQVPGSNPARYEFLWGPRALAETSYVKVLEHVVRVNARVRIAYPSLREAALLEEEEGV
Method: Recombinant MAGEA3- and recombinant MAGEA4-protein were separated in SDS-PAGE and blotted onto membranes. Membranes were incubated with human antibodies 122G3 or 32H2. Binding of human antibodies to proteins on the membrane was evaluated using an HRP-labeled goat anti human IgG (Jackson Immunoresearch, Milan Analytica AG, Rheinfelden, Switzerland). The results are depicted in FIG. 3.

MAGEA3 peptide no 24 = target: T26, MAGEA3 peptide no 24; assay: ELISA on plate-coated 20mer peptide, antibody at 1 µg/ml, anti-human IgG Fc-HRP
T26 construct: also called MAGEA3 aa 231-250
T26 peptide: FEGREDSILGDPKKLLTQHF
Method: as §1, §2

MAGEA3 peptide no 7 = target: T27, MAGEA3 peptide no 7; assay: as above
T27 construct: also called MAGEA3 aa 61-80
T27 peptide: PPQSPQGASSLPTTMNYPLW
Method: as §1, §2

MAGEA3 peptide no 8 = target: T28, MAGEA3 peptide no 8; assay: as above
T28 construct: also called MAGEA3 aa 71-90
T28 peptide: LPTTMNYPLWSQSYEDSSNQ
Method: as §1, §2

MAGEA3 = target: T29, MAGEA3 (human, UniProt P43357 1-314); assay: ELISA, plate coated with recombinant MAGEA3, serial dilution of antibody
T29 construct: also called recombinant MAGEA3; MAGEA3-protein

B1: 122G3 (antibody, V domains shown)
VH: QVQLVQSGAEVKKPGASVKVSCKASGYTFTNYAIHWVRQAPGQRLEWMGWINAGKGNTKYSQKFQGRVTITRDTSADTTYMELSSLRSEDTAVYFCAQAGLSSGLYRDYWGQGTPVTVSS
VL: EIVMTQSPATLSVSPGERATLSCRASQSVSSDLAWYQQKRGQAPRLLIYGASTRATGIPARFSGSGSGTEFTLTISSLQSEDFAVYWCQQYNDWPLTFGGGTKVEIN
notes: Patient-derived human antibody made recombinantly; also called human monoclonal antibody 122G3
MAGEA3 peptide no 1
  binding result: no binding (tested: 1 µg/ml)
MAGEA3 peptide no 10
  binding result: no binding (tested: 1 µg/ml)
MAGEA3 peptide no 11
  binding result: no binding (tested: 1 µg/ml)
MAGEA3 peptide no 12
  binding result: no binding (tested: 1 µg/ml)
MAGEA3 peptide no 13
  binding result: no binding (tested: 1 µg/ml)
MAGEA3 peptide no 14
  binding result: no binding (tested: 1 µg/ml)
MAGEA3 peptide no 15
  binding result: no binding (tested: 1 µg/ml)
MAGEA3 peptide no 17
  binding result: no binding (tested: 1 µg/ml)
MAGEA3 peptide no 18
  binding result: no binding (tested: 1 µg/ml)
MAGEA3 peptide no 19
  binding result: no binding (tested: 1 µg/ml)
MAGEA3 peptide no 2
  binding result: no binding (tested: 1 µg/ml)
MAGEA3 peptide no 20
  binding result: no binding (tested: 1 µg/ml)
MAGEA3 peptide no 21
  binding result: no binding (tested: 1 µg/ml)
MAGEA3 peptide no 22
  binding result: no binding (tested: 1 µg/ml)
MAGEA3 peptide no 25
  binding result: no binding (tested: 1 µg/ml)
MAGEA3 peptide no 26
  binding result: no binding (tested: 1 µg/ml)
MAGEA3 peptide no 27
  binding result: no binding (tested: 1 µg/ml)
MAGEA3 peptide no 28
  binding result: no binding (tested: 1 µg/ml)
MAGEA3 peptide no 29
  binding result: no binding (tested: 1 µg/ml)
MAGEA3 peptide no 3
  binding result: no binding (tested: 1 µg/ml)
MAGEA3 peptide no 30
  binding result: no binding (tested: 1 µg/ml)
MAGEA3 peptide no 5
  binding result: no binding (tested: 1 µg/ml)
MAGEA3 peptide no 6
  binding result: no binding (tested: 1 µg/ml)
MAGEA3 peptide no 9
  binding result: no binding (tested: 1 µg/ml)
MAGEA4
  binding result: no binding
MAGEA3 peptide no 24
  binding result: binds
MAGEA3 peptide no 7
  binding result: binds
MAGEA3 peptide no 8
  binding result: binds
MAGEA3
  EC50: 0.023 nM
  EC50 (read off the curve): ~0.02 nM
